{
  "source": "patent US20200140538A1",
  "about": "(INSTITUTE FOR BASIC SCIENCE, published 2020)",
  "binders": {"B1": {"name": "TCB2 monoclonal antibody (mouse TCB2) (antibody, V domains shown)", "VH": "EVQLQQSGAELARPGASVKLSCKASGYTFTTYWIQWVKQRPGQGLEWIGAIYPGDGDTRYIQNFKGKATLTADKSSSTAYMQLSSLASEDSAVYYCARSLATRGFYAMDYWGQGTSVTVSS", "VL": "DIVMTQSPASLSMAIGEKVTIRCITSTDIDDDMNWYQQKPGEPPKLLISEGNTLRPGVPSRFSSSGYGTDFVFTIENMLSEDVADYYCLQSDNLPYTFGGGTKLEIK", "notes": "Mouse hybridoma antibody from BALB/c mice immunized with hIL-2; It was detected with anti-mouse IgG HRP; also called TCB2 mAb; mTCB2"}, "B2": {"name": "human chimeric TCB2 (antibody, human IgG2, kappa, V domains shown)", "VH": "B1 VH", "VL": "DIVMTQSPASLSMAIGEKVTIRCITSTDIDDDMNWYQQKPGEPPKLLISEGNTLRPGVPSRFSSSGYGTDFVFTIENMLSEDVADYYCLQSDNLPYTFGGGTKLEIKR", "notes": "The Fab region of TCB2 mAb was cloned into an IgG2 expression vector; also called hcTCB2"}, "B3": {"name": "S4B6 (antibody, V domains shown)", "VH": "EVQLQESGAELVRPGTSVKLSCKVSGDTITAYYLHFVRQRPGQGLEWIGRIDPEDDSTKYAENFKNKATFTADASSNTAYLRLSSLTSEDTATYFCTTVTFYYSRELRWFAYWGQGTLVTVSS", "VL": "DIQVTQSPASLSASLEEIVTITCQASQDIGNYLSWYQQKLGKSPQLLIHSATSLADGVPSRFSGSRSGTQYSLKINRLQVEDTGIYYCLQHYSTPYTFGAGTKLELK"}, "B4": {"name": "MAB602 (antibody, from another filing, V domains shown)", "VH": "EVQLQESGPGLVAPSQSLSITCTVSGFSLTNYDISWIRQPPGKGLEWLGVIWTGGGTNYNSGFMSRLSITKDNSKSQVFLKMNSLQTDDTAIYYCVRQGRTPYWGQGTLVTVSA", "VL": "DIQVTQSPSSLSVSLGDRVTITCKASKDIYNRLAWYQQKPGNAPRLLISGATSLETGVPSRFSGSGSGKDYTLTITSLQTEDVATYYCQQFWGTPYTFGGGTKLEIKR"}, "B5": {"name": "humanized TCB2 clone VH1+VL2 (antibody, V domains shown)", "VH": "QVQLVQSGAEVKKPGASVKVSCKASGYTFTTYWIQWVRQAPGQGLEWMGAIYPGDGDTRYIQNFKGRVTMTRDTSTSTVYMELSSLRSEDTAVYYCARSLATRGFYAMDYWGQGTLVTVSS", "VL": "DIVMTQSPSSLSASVGDRVTIRCITSTDIDDDMNWYQQKPGKAPKLLISEGNTLRPGVPSRFSGSGYGTDFTFTISSLQPEDIADYYCLQSDNLPYTFGGGTKLEIK", "notes": "Humanized and expressed with human IgG1 Fc; also called VL2+VH1; hnTCB2"}, "B6": {"name": "humanized TCB2 clone VH2+VL2 (antibody, V domains shown)", "VH": "B5 VH with V20L, R38K, M48I, R72A", "VL": "B5 VL", "notes": "Humanized and expressed with human IgG1 Fc; also called VL2+VH2; hnTCB2"}, "B7": {"name": "humanized TCB2 clone AH03463 (VL03463+VH03463) (antibody, V domains shown)", "VH": "B5 VH with Q1E, R38K", "VL": "B5 VL with V3Q, R22T, S49Y, G64S, Y67S, D85T", "notes": "Humanized and expressed with human IgG1 Fc; also called hnTCB2"}},
  "key": {"mouse IL-2 (mIL-2)": {"target": "T1, mouse IL-2 (mIL-2) (mouse, UniProt P04351 21-169)", "T1 construct": "Coated on the ELISA plate at 5 ug/ml", "T1 sequence (looked up)": "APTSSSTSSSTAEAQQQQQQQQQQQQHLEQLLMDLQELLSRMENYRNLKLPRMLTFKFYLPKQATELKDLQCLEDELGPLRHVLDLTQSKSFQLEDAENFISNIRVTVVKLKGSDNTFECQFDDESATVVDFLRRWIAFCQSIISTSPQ", "experiment": "ELISA on plate coated with mIL-2 (5 µg/ml), titrated mAb, detection with anti-mouse IgG HRP or anti-rat IgG HRP", "method": "In vivo mouse models were used to evaluate the therapeutic efficacy of a hIL-2/TCB2 mAb complex. […] First, the splenocytes of BALB/c mice immunized 3-4 times with hIL-2 over several weeks were fused with SP/2 myeloma cells. When the hybridoma colony was visualized, the culture supernatant was subjected to ELISA. 5 μg/ml of hIL-2 or mIL-2 was added to and mixed with PBS, and a total of 50 μl of the mixture was coated on an ELISA plate. Next, 200 μl of 10% FBS was added to the PBS and incubated at room temperature for 30 minutes in order to prevent non-specific binding, and a titrated dose of the monoclonal antibody was incubated for 30 minutes. The binding of the monoclonal antibody to the coated hIL-2 or mIL-2 was detected with anti-mouse IgG HRP or anti-rat IgG HRP. In each step, the plate was washed 3-5 times with 200 μl of PBS. As positive controls, commercially available monoclonal antibodies were used. As a positive control for hIL-2, Mab602 was used, and as positive controls for mIL-2, JES6-1 and S4B6 were used."}, "[1]": {"target": "T2, human interleukin-2 (hIL-2) (human, UniProt P60568 21-153)", "T2 construct": "mature; The 133-residue length in the definition corresponds to the mature protein; also called human IL-2", "T2 sequence (P60568 21-153)": "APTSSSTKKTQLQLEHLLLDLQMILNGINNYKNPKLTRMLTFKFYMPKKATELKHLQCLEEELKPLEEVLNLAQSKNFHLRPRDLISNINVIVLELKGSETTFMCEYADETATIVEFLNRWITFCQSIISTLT", "experiment": "SPR, Biacore T100; antibody immobilized on a CM5 chip by amine coupling, hIL-2 flowed as 2-fold dilutions from 100 nM", "method": "For detection of hIL-2, […] was used. 900 RU (Rmax=90) of anti-hIL-2 clones were immobilized on a CM5 chip by amine coupling. A 2-fold dilution (100 nM) of hIL-2 was allowed to flow on the chip at a rate of 10 μl/min for 3 minutes, and then dissociation of the hIL-2 was monitored for 10 minutes."}, "[2]": {"target": "T2, human interleukin-2 (hIL-2)", "experiment": "kinetic affinity for hIL-2, Set 1; method not given"}, "[3]": {"target": "T2, human interleukin-2 (hIL-2)", "experiment": "kinetic affinity for hIL-2, Set 2; method not given"}, "[4]": {"target": "T2, human interleukin-2 (hIL-2)", "experiment": "kinetic affinity for hIL-2, Set 1; method not given; Set 1"}, "[5]": {"target": "T2, human interleukin-2 (hIL-2)", "experiment": "ELISA on plate coated with hIL-2 (5 µg/ml), titrated mAb, detection with anti-mouse IgG HRP or anti-rat IgG HRP"}},
  "note": "Residue numbers refer to the chain shown, from its start.",
  "data": [
    {"binder": "B1", "values": [
      {"measurement": "binding result", "setting": "mouse IL-2 (mIL-2)", "result": "no binding (tested: 10000 ng/ml)"},
      {"measurement": "Kd", "setting": "[1]", "result": 0.0811, "unit": "nM"},
      {"measurement": "koff", "setting": "[1]", "result": 0.000419, "unit": "s⁻¹"},
      {"measurement": "kon", "setting": "[1]", "result": "5.17e+06", "unit": "M⁻¹ s⁻¹"}
    ]},
    {"binder": "B2", "values": [
      {"measurement": "Kd", "setting": "[2]", "result": 0.0717, "unit": "nM"},
      {"measurement": "koff", "setting": "[2]", "result": 0.00163, "unit": "s⁻¹"},
      {"measurement": "Kd", "setting": "[3]", "result": 0.0616, "unit": "nM"},
      {"measurement": "koff", "setting": "[3]", "result": 0.00141, "unit": "s⁻¹"},
      {"measurement": "kon", "setting": "[3]", "result": "2.29e+07", "unit": "M⁻¹ s⁻¹"},
      {"measurement": "kon", "setting": "[4]", "result": "2.27e+07", "unit": "M⁻¹ s⁻¹"}
    ]},
    {"binder": "B3", "values": [
      {"measurement": "EC50 (read off the curve)", "setting": "mouse IL-2 (mIL-2)", "result": "~0.3", "unit": "µg/mL"}
    ]},
    {"binder": "B4", "values": [
      {"measurement": "EC50 (read off the curve)", "setting": "[5]", "result": 0.04, "unit": "µg/mL"},
      {"measurement": "EC50 (read off the curve)", "setting": "mouse IL-2 (mIL-2)", "result": 0.03, "unit": "µg/mL"},
      {"measurement": "Kd", "setting": "[1]", "result": 0.213, "unit": "nM"},
      {"measurement": "koff", "setting": "[1]", "result": 0.000948, "unit": "s⁻¹"},
      {"measurement": "kon", "setting": "[1]", "result": "4.43e+06", "unit": "M⁻¹ s⁻¹"}
    ]},
    {"binder": "B5", "values": [
      {"measurement": "Kd", "setting": "[2]", "result": 0.104, "unit": "nM"},
      {"measurement": "koff", "setting": "[2]", "result": 0.00197, "unit": "s⁻¹"},
      {"measurement": "kon", "setting": "[2]", "result": "1.89e+07", "unit": "M⁻¹ s⁻¹"}
    ]},
    {"binder": "B6", "values": [
      {"measurement": "Kd", "setting": "[2]", "result": 0.275, "unit": "nM"},
      {"measurement": "koff", "setting": "[2]", "result": 0.00463, "unit": "s⁻¹"},
      {"measurement": "kon", "setting": "[2]", "result": "1.68e+07", "unit": "M⁻¹ s⁻¹"}
    ]},
    {"binder": "B7", "values": [
      {"measurement": "Kd", "setting": "[3]", "result": 0.198, "unit": "nM"},
      {"measurement": "koff", "setting": "[3]", "result": 0.00418, "unit": "s⁻¹"},
      {"measurement": "kon", "setting": "[3]", "result": "2.11e+07", "unit": "M⁻¹ s⁻¹"}
    ]}
  ]
}
